Source: patent US20070167369A1 (published 2007)

Target: HUVECs
Assay: cell binding (Scatchard, Abs. 490 nm)

- Kd: 1000 nM
B1: Regenin (other)
chain: MGTVMDVLKGDNRFSMLVAAIQSAGLTETLNREGVYTVFAPTNEAFRALPPRERSRLLGDAKELANILKYHIGDEILVSGGIGALVRLKSLQGDKLEVSLKNNVVSVNKEPVAEPDIMATNGVVHVITNVLMGTVMDVLKGDNRFSMLVAAIQSAGLTETLNREGVYTVFAPTNEAFRALPPRERSRLLGDAKELANILKYHIGDEILVSGGIGALVRLKSLQGDKLEVSLKNNVVSVNKEPVAEPDIMATNGVVHVITNVLMGTVMDVLKGDNRFSMLVAAIQSAGLTETLNREGVYTVFAPTNEAFRALPPRERSRLLGDAKELANILKYHIGDEILVSGGIGALVRLKSLQGDKLEVSLKNNVVSVNKEPVAEPDIMATNGVVHVITNVLMGTVMDVLKGDNRFSMLVAAIQSAGLTETLNREGVYTVFAPTNEAFRALPPRERSRLLGDAKELANILKYHIGDEILVSGGIGALVRLKSLQGDKLEVSLKNNVVSVNKEPVAEPDIMATNGVVHVITNVL
